According to article PMC4315244 (The Journal of Cell Biology, 2015):

Assays:
SEC-MALS = molecular target: the molecule itself; test: SEC-MALS
Nup82-Flag-TEV-ProtA = Nup82-Flag-TEV-ProtA (S. cerevisiae, UniProt P40368 1-713); test: quantitative targeted mass spectrometry
AUC + SEC = molecular target: the molecule itself; test: AUC + SEC
Nup82 (of the …) = molecular target: Nup82 (of the Nup82–Nup159tail–Flag-Nsp1C complex) (S. cerevisiae, UniProt P40368 1-713); test: SEC-MALS
Chain of Nup82 (of the Nup82–Nup159tail–Flag-Nsp1C complex) (P40368 whole entry, one chain of several): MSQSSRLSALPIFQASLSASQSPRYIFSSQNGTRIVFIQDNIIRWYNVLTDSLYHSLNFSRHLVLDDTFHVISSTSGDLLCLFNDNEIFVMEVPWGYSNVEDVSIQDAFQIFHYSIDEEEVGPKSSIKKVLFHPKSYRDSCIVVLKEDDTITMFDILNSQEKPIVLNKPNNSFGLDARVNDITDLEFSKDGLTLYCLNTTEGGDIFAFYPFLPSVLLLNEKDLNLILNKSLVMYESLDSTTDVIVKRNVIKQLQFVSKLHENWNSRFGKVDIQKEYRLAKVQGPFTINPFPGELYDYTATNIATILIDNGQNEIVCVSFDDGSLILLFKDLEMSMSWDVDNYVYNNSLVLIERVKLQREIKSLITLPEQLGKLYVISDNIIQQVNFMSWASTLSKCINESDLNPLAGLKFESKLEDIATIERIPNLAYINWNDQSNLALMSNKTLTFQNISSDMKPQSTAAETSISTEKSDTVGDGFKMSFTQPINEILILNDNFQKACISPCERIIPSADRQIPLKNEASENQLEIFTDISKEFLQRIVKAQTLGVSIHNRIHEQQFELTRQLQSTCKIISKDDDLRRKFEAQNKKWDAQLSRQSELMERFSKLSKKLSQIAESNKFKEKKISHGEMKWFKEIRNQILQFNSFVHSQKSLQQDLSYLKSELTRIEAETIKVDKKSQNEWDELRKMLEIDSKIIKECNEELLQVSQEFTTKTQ

Chain of Nup82-Flag-TEV-ProtA (P40368 whole entry): as the sequence (P40368 whole entry, one chain of several) above

B1: Nup159-QT4–5-Linker-H1 (domain or fragment, S. cerevisiae, UniProt P40477 1150-1244, looked up)
chain: VKKEAVDNGLQTEPVETCNFSVQTFEGDENYLAEQCKPKQLKEYYTSAKVSNIPFVSQNSTLRLIESTFQTVEAEFTVLMENIRNMDTFFTDQSS
- stoichiometry N (SEC-MALS): 4

B2: Nup159C (domain or fragment, S. cerevisiae, UniProt P40477 1082-1460, looked up)
chain: EDINTDELPHGGEAFKAREVSASADFDVQTSLEDNYAESGIQTDLSESSKENEVQTDAIPVKHNSTQTVKKEAVDNGLQTEPVETCNFSVQTFEGDENYLAEQCKPKQLKEYYTSAKVSNIPFVSQNSTLRLIESTFQTVEAEFTVLMENIRNMDTFFTDQSSIPLVKRTVRSINNLYTWRIPEAEILLNIQNNIKCEQMQITNANIQDLKEKVTDYVRKDIAQITEDVANAKEEYLFLMHFDDASSGYVKDLSTHQFRMQKTLRQKLFDVSAKINHTEELLNILKLFTVKNKRLDDNPLVAKLAKESLARDGLLKEIKLLREQVSRLQLEEKGKKASSFDASSSITKDMKGFKVVEVGLAMNTKKQIGDFFKNLNMAK
- stoichiometry N (Nup82-Flag-TEV-ProtA): 1
- stoichiometry N (AUC + SEC): 2

B3: Nsp1C (domain or fragment)
chain: not shown
- stoichiometry N (Nup82-Flag-TEV-ProtA): 1

B4: Flag-Nsp1C (domain or fragment)
chain: not shown
- stoichiometry N (Nup82 (of the …)): 1
